Here are results for three molecules from patent US20250340613A1 (JOINT STOCK COMPANY BIOCAD, published 2025).

Broadly, the Kd is the free concentration of one partner at which half of the binding sites on the other are occupied at equilibrium, for simple one-to-one binding. A low value points to higher affinity. The term koff denotes the first-order rate constant of dissociation. A low value points to a long-lived complex. The kon is the rate constant with which the complex forms.

For assay [1], the target named is T1, extracellular domain of the human PD-1 protein (hPD1ex-H6F) (Homo sapiens, UniProt Q15116 21-170).
T1 construct: Molecular weight 20.6 kDa; made in CHO cells; also called hPDlex-H6F; not shown: C-terminal His and FLAG tags
Briefly: BLI Octet RED 384; antibody on ProA sensor, antigen in solution; 1:1 global fit. As for the experimental part: (§1) The experiments were carried out using a kinetic buffer solution (hereinafter referred to as 1×KB) having the following formulation: 4.3 mM Na₂HPO₄; 136.9 mM NaCl, 1.5 mM KH₂PO₄; 2.7 mM KCl; the volume fraction of the added Tween 20 was 0.1%; the mass fraction of the added BSA (bovine serum albumin) was 0.1%; pH 7.4. Before the measurement, the ProA sensors were regenerated with a solution of 50 mM glycine and hydrochloric acid, pH 1.8 (5 seconds in the regenerating solution, 5 seconds in 1×KB, three repetitions). In the case of the hPD1ex-H6F and hCSF1R_His antigens, the Protein A (ProA) biosensors (ForteBio) were immersed in a solution with antibodies at a concentration of 10 μg/ml for 60 seconds to immobilize same. The baseline was recorded in 1×KB for 60 seconds. The sensors loaded with the antibody were then immersed into wells containing a solution of the target antigen (analyte) in a kinetic buffer for 90 seconds. Measurements were performed for solutions with hPDlex-H6F analyte at concentrations of 2.50 μg/ml (121.4 nM), 1.25 μg/ml (60.7 nM), 0.625 μg/ml (30.35 nM). […] Then we detected complex dissociation in 1×KB for 210 s for hPDlex-H6F, 300 s for hCSF1R_His.
(§2) All measurements were carried out at 30° C., orbital mixing speed was 1,000 revolutions per minute.
(§3) To obtain numerical values of kinetic constants (kₒₙ is the on/association rate constant, kdis is the dissociation rate constant, KD is the equilibrium dissociation constant or affinity constant), the resulting sensograms were processed according to the 1:1 interaction model using Global Fit (selection of one set of kon, kdis, KD constants to analyze several sensograms of different concentrations) of the ForteBio Octet Data Analysis 9.0 software.
In general terms: Biolayer interferometry detects binding as a change in optical thickness at a sensor tip.

Assay [2] concerns the target T2, IL5R-His, Interleukin-5 receptor subunit alpha (Homo sapiens) aa 22-342 (Homo sapiens, UniProt Q01344 22-342).
T2 construct: not shown: His tag as the name implies
T2 sequence (looked up): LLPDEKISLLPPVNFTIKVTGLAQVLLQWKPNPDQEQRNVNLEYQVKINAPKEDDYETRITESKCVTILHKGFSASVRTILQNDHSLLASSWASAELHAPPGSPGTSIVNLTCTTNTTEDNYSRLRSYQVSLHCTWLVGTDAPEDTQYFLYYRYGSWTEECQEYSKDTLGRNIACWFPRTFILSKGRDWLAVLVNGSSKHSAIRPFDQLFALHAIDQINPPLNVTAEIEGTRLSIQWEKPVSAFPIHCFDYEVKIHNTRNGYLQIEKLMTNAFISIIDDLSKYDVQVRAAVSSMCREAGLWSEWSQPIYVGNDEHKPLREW
Briefly: BLI Octet RED 384; antibody on ProA sensor, antigen 30 ug/ml (757.6 nM); response at end of association. As for the experimental part:
(§4) Experimental study of nonspecific binding of bispecific chimeric antibodies to non-target antigens was performed on Forte Bio Octert RED 384. Protein A (ProA) biosensors (ForteBio) were immersed into a solution containing antibodies at a concentration of 10 μg/ml for 150 seconds to immobilize same. The baseline was recorded in a 1×KB solution for 30 seconds. The antibody-loaded sensors were then immersed into wells containing non-target antigens at a concentration of 30 μg/ml for 150 seconds. Complex dissociation was then recorded for 30 seconds.
(§5) The reference sensors went through all the steps as the sensors used to record analyte sensograms did, with the exception of the association step—at the association step, the sensors were immersed in a kinetic buffer solution without analyte (the reference sensor signals were measured in parallel with the recording of the main sensograms). The reference signal was subtracted from the signal received on sensors interacting with the analyte during the processing of sensograms.
(§6) Sensograms were processed using ForteBio Octet Data Analysisn 9.0 software. To report no non-specific interaction, the recorded signal level was checked at the end of the association step (the response parameter).

Assay [3] addresses T3, biotinylated peptide [NH2]…JQS[CH2CH2]biotin comprising a fragment of the human CD20 sequence (human, [NH2] at the N-terminus; [CH2CH2]biotin at the C-terminus; the letter J at position 20 is printed so and is not a standard residue code).
T3 construct: also called CD20 peptide
Briefly: BLI Octet RED 384; biotinylated peptide on SAX sensor, antibody in solution; 1:1 global fit. As for the experimental part:
In the case of the biotinylated CD20 peptide, the peptide at a concentration of 5 μg/ml was immobilized on the surface of SAX sensors (High Precision Streptavidin (SAX) biosensors, ForteBio) for 120 seconds. The baseline was recorded in a 1×KB solution for 120 seconds. The sensors containing the loaded peptide were immersed into wells containing the antibody solution (analyte) in 1×KB for 15 seconds. Measurements were carried out for solutions with analyte (antibodies in the case of CD20 peptide) at concentrations of 150 μg/ml, 75 μg/ml, 37.5 μg/ml. Complex dissociation was recorded in 1×KB for 120 seconds.
as §2, §3

The target in assay [4] is T2, IL5R-His, Interleukin-5 receptor …. Briefly: BLI Octet RED 384; antibody on ProA sensor, antigen 30 ug/ml.
Assay [5] has as its target T4, extracellular domain of the human CSF1R protein (hCSF1R_His) (Homo sapiens, UniProt P07333 20-512).
T4 construct: range 20-512; Molecular weight 57.4 kDa; made in CHO cells; also called hCSF1_His; not shown: C-terminal His and FLAG tags
Put plainly: BLI Octet RED 384; antibody on ProA sensor, antigen 30 ug/ml (522.5 nM); response at end of association. As for the experimental part: as §4, §5, §6

Assay [6] concerns the target T4, extracellular domain of the human CSF1R …. Put plainly: BLI Octet RED 384; antibody on ProA sensor, antigen in solution; 1:1 global fit. The method, then:
as §1, §2, §3

T4 sequence (P07333 20-512 limits assumed): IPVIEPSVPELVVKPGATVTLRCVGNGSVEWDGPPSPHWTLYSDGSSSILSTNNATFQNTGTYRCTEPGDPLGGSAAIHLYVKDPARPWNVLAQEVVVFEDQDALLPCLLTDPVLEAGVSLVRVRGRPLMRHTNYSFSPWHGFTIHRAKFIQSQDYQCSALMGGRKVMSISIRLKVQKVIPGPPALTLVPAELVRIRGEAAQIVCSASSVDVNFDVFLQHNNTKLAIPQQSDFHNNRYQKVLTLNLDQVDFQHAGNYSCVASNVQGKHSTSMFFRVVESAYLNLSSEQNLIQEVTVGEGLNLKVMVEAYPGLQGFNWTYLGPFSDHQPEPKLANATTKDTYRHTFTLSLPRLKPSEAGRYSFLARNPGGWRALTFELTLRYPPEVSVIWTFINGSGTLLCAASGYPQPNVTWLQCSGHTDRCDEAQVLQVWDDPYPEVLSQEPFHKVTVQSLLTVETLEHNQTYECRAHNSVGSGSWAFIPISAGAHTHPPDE
T3 sequence (peptide, as listed by the source): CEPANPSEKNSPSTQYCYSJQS
T1 sequence (Q15116 21-170 limits assumed, form in doubt): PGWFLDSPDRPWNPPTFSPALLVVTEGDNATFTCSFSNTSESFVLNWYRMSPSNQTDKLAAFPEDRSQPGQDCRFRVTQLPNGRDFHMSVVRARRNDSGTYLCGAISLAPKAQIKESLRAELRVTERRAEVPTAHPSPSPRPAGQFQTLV

B1: 02-005, bivalent bispecific chimeric antibody that specifically binds to PD1 and CD20 (bispecific antibody, human IgG1, kappa, L234A L235A)
heavy 1: EVQLVESGGGLVQPGGSLRLSCAASGYTFTSYNMHWVRQAPGKGLEWVGAIYPGNGDTSYNQKFKGRFTISVDKSKNTLYLQMNSLRAEDTAVYYCARVVYYSNSYWYFDVWGQGTLVTVSSASTKGPSVFPLAPSSKSTSGGTAALGCLVKDYFPEPVTVSWNSGALTSGVHTFPAVLQSSGLYSLSSVVTVPSSSLGTQTYICNVNHKPSNTKVDKRVEPKSCDKTHTCPPCPAPEAAGGPSVFLFPPKPKDTLYITREPEVTCVVVDVSHEDPEVKFNWYVDGVEVHNAKTKPREEQYNSTYRVVSVLTVLHQDWLNGKEYKCKVSNKALPAPIEKTISKAKGQPREPQVCTLPPSRDELTKNQVSLSCAVKGFYPSDIAVEWESNGQPENNYKTTPPVLDSDGSFFLVSKLTVDKSRWQQGNVFSCSVMHEALHNHYTQKSLSLSPGK
light 1: DIQMTQSPSSLSASVGDRVTITCRASSSVSYMHWYQQKPGKAPKPLIYAPSNLASGVPSRFSGSGSGTDFTLTISSLQPEDFATYYCQQWSFNPPTFGQGTKVEIKRTVAAPSVFIFPPSDEQLKSGTASVVCLLNNFYPREAKVQWKVDNALQSGNSQESVTEQDSKDSTYSLSSTLTLSKADYEKHKVYACEVTHQGLSSPVTKSFNRGEC
heavy 2: not shown
light 2: QPVLTQPLSVSVALGQTARITCGGNNIGSKNVHWYQQKPGQAPVLVIYRDSNRPSGIPERFSGSNSGNTATLTISRAQAGDEADYYCQVWDSSTAVFGTGTKLTVLQQRQVKPEAWLSSGPSPGPGRLQLVCHVSGFYPKPVWVMWMRGEQEQQGTQLGDILPNANWTWYLRATLDVADGEAAGLSCRVKHSSLEGQDIILYWRGSC
notes: Produced in CHO cells
Take B1: in assay [1], binding was put at a Kd of 5.69 nM, the koff is 0.00101 s⁻¹ and the association rate constant (kon) was found to be 178000 M⁻¹ s⁻¹. Further, the “Signal level (nm)” value in assay [2] was 0.0225 nm. Besides, in assay [3], the equilibrium dissociation constant (Kd) turned out to be 1120 nM, the off-rate constant (koff) stood at 0.342 s⁻¹ and the on-rate (kon) came out at 305000 M⁻¹ s⁻¹. The binding result in assay [4] is given as “no binding (tested: 757.6 nM)”. Besides, the “Signal level (nm)” value in assay [5] was found to be 0.0034 nm.

B2: 02-004, bivalent bispecific chimeric antibody that specifically binds to PD1 and CD20 (bispecific antibody, human IgG1, kappa, L234A L235A)
heavy 1: QVQLVQSGGGLVQPGGSLRLSCAASGFTFSSYWMYWVRQVPGKGLEWVSAIDTGGGRTYYADSVKGRFAISRVNAKNTMYLQMNSLRAEDTAVYYCARDEGGGTGWGVLKDWPYGLDAWGQGTLVTVSSASTKGPSVFPLAPSSKSTSGGTAALGCLVKDYFPEPVTVSWNSGALTSGVHTFPAVLQSSGLYSLSSVVTVPSSSLGTQTYICNVNHKPSNTKVDKRVEPKSCDKTHTCPPCPAPEAAGGPSVFLFPPKPKDTLYITREPEVTCVVVDVSHEDPEVKFNWYVDGVEVHNAKTKPREEQYNSTYRVVSVLTVLHQDWLNGKEYKCKVSNKALPAPIEKTISKAKGQPREPQVCTLPPSRDELTKNQVSLSCAVKGFYPSDIAVEWESNGQPENNYKTTPPVLDSDGSFFLVSKLTVDKSRWQQGNVFSCSVMHEALHNHYTQKSLSLSPGK
light 1: QPVLTQPLSVSVALGQTARITCGGNNIGSKNVHWYQQKPGQAPVLVIYRDSNRPSGIPERFSGSNSGNTATLTISRAQAGDEADYYCQVWDSSTAVFGTGTKLTVLQRTVAAPSVFIFPPSDEQLKSGTASVVCLLNNFYPREAKVQWKVDNALQSGNSQESVTEQDSKDSTYSLSSTLTLSKADYEKHKVYACEVTHQGLSSPVTKSFNRGEC
heavy 2: not shown
light 2: DIQMTQSPSSLSASVGDRVTITCRASSSVSYMHWYQQKPGKAPKPLIYAPSNLASGVPSRFSGSGSGTDFTLTISSLQPEDFATYYCQQWSFNPPTFGQGTKVEIKQRQVKPEAWLSSGPSPGPGRLQLVCHVSGFYPKPVWVMWMRGEQEQQGTQLGDILPNANWTWYLRATLDVADGEAAGLSCRVKHSSLEGQDIILYWRGSC
notes: Produced in CHO cells
In assay [1], B2 returned a dissociation constant Kd of 3.49 nM, an off-rate constant (koff) of 0.000753 s⁻¹ and an on-rate constant (kon) of 216000 M⁻¹ s⁻¹. Moreover, the “Signal level (nm)” value in assay [2] came to 0.0249 nm. In assay [3], this molecule registered a Kd of 1270 nM, a koff of 0.238 s⁻¹ and a kon of 188000 M⁻¹ s⁻¹. Further, the binding result in assay [4] is given as “no binding (tested: 757.6 nM)”. In addition, the “Signal level (nm)” value in assay [5] was 0.0103 nm.

B3: 02-009, bivalent bispecific chimeric antibody that specifically binds to CD20 and CSF1R (bispecific antibody, human IgG1, kappa, L234A L235A)
heavy 1: QVQLVESGGGLVRPGGSLRLSCAASEFTFDDYAMSWVRQAPGKGLEWVSAISWNGGSTNYADSVKGRFTISRDNAKNSLYLQMNSLRAEDTALYYCASTVEVAHRRLYKYLEVWGQGTLVTVSSASTKGPSVFPLAPSSKSTSGGTAALGCLVKDYFPEPVTVSWNSGALTSGVHTFPAVLQSSGLYSLSSVVTVPSSSLGTQTYICNVNHKPSNTKVDKRVEPKSCDKTHTCPPCPAPEAAGGPSVFLFPPKPKDTLYITREPEVTCVVVDVSHEDPEVKFNWYVDGVEVHNAKTKPREEQYNSTYRVVSVLTVLHQDWLNGKEYKCKVSNKALPAPIEKTISKAKGQPREPQVCTLPPSRDELTKNQVSLSCAVKGFYPSDIAVEWESNGQPENNYKTTPPVLDSDGSFFLVSKLTVDKSRWQQGNVFSCSVMHEALHNHYTQKSLSLSPGK
light 1: QAGLTQPPSVSVAPGQTARITCGGNNIGSKSVHWYQQKPGQAPVLVVYGDSDRPSGIPERFSGSNSGNTATLTISRVEAGDEADYYCQVWDISSDHVVFGGGTQLTVLRTVAAPSVFIFPPSDEQLKSGTASVVCLLNNFYPREAKVQWKVDNALQSGNSQESVTEQDSKDSTYSLSSTLTLSKADYEKHKVYACEVTHQGLSSPVTKSFNRGEC
heavy 2: not shown
light 2: DIQMTQSPSSLSASVGDRVTITCRASSSVSYMHWYQQKPGKAPKPLIYAPSNLASGVPSRFSGSGSGTDFTLTISSLQPEDFATYYCQQWSFNPPTFGQGTKVEIKQRQVKPEAWLSSGPSPGPGRLQLVCHVSGFYPKPVWVMWMRGEQEQQGTQLGDILPNANWTWYLRATLDVADGEAAGLSCRVKHSSLEGQDIILYWRGSC
notes: Produced in CHO cells
In assay [6], B3 had a Kd of 0.42 nM, a koff of 0.00021 s⁻¹ and a kon of 500000 M⁻¹ s⁻¹. For the same molecule, in assay [2], the “Signal level (nm)” value is -0.0064 nm. In assay [3], this molecule registered a Kd of 820 nM, an off-rate (koff) of 0.177 s⁻¹ and a kon of 216000 M⁻¹ s⁻¹. Also, in assay [5], the “Signal level (nm)” value turned out to be 0.564 nm.
